Here are results for one molecule from patent US20210309981, “VARIANT TYPE V CRISPR/CAS EFFECTOR POLYPEPTIDES AND METHODS OF USE THEREOF” (The Regents of the University of California, published 2021).

The series addresses T1, dCasX (D672A-E769A-D935A) (Deltaproteobacteria, D672A,E769A,D935A).
T1 chain: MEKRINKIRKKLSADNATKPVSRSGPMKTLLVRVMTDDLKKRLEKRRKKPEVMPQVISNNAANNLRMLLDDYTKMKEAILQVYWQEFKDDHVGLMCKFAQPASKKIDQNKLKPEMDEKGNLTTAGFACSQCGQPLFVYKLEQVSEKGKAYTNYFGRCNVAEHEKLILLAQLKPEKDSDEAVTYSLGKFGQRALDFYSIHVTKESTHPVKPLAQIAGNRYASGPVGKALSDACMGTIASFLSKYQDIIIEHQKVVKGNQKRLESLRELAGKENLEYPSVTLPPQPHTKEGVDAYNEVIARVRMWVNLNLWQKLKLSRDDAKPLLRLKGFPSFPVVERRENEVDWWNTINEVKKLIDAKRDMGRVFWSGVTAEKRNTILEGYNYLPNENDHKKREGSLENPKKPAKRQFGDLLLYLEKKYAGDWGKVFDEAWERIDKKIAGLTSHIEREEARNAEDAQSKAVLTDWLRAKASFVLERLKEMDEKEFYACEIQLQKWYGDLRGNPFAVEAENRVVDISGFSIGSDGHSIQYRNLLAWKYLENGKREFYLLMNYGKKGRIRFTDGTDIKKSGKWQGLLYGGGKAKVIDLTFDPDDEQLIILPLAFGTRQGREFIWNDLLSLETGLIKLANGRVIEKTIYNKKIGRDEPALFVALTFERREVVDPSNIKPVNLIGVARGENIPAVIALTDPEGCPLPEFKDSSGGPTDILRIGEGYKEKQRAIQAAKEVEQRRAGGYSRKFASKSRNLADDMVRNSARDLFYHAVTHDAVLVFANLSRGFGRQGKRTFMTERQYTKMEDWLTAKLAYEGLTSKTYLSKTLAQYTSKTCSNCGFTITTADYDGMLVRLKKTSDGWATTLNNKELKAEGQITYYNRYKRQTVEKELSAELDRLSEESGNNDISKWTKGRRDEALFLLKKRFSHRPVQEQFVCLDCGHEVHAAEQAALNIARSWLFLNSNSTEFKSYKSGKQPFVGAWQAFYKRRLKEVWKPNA
The experiment in a line: structure; binary CasX-gRNA complex by SEC and cryo-EM; wild-type vs triple mutant not explicitly stated. The settings on record: tags: 2CT-10 vector; tag removed by TEV. (Size exclusion chromatography separates by hydrodynamic size, large species first.)

B1: CasX sgRNA (in vitro transcribed; listed sequence is the DNA transcription template) (ssRNA)
RNA: GGCGCGUUUAUUCCAUUACUUUGGAGCCAGUCCCAGCGACUAUGUCGUAUGGACGAAGCGCUUAUUUAUCGGAGAGAAACCGAUAAGUAAAACGCAUCAAAGUCCUGCAGCAGAAAAUCAAA
Regarding B1, the binding result was “binds”.
